Data from US20240228562A1, “NOVEL LIPOCALIN MUTEINS SPECIFIC FOR CONNECTIVE TISSUE GROWTH FACTOR (CTGF)” (PIERIS PHARMACEUTICALS GMBH, priority 2021, published 2024).
Substitutions are numbered along the chain they refer to.

B1: SEQ ID NO: 10: optimized CTGF-binding hNGAL lipocalin mutein (protein)
chain: QDSTSDLIPAPPLSKVPLQQNFQDNQFQGKWYVVGLAGNAILREDKQPAKMFATIYELKEDKSYDVTSVRFEAKSCSYTIKTFVPGSQPGEFTAGNIKSAPGQTSTLVRVVSTNYNQHAMVFWKSVAGTRESFNIALYGRTKELTSELKENFIRFSKSLGLPENHIVFPVPIDQCIDG
modifications: lipocalin mutein
B2: SEQ ID NO: 22: optimized CTGF-binding hNGAL lipocalin mutein (protein)
chain: QDSTSDLIPAPPLSKVPLQQNFQDNQFQGKWYVVGIAGNAILRVDKQPAKMFATIYELKEDKSYDVTSVRFEAKSCVYTIKTFVPGSQPGEFTAGNIKSAPGQTSTLVRVVSTNYNQHAMVFFKHVSQNREIFVITLYGRTKELTSELKENFIRFSKSLGLPENHIVFPVPIDQCIDG
modifications: lipocalin mutein
B3: SEQ ID NO: 32: optimized CTGF-binding hNGAL lipocalin mutein (protein)
chain: QDSTSDLIPAPPLSKVPLQQNFQDNQFQGKWYVVGWAGNVKLREDKQPFKMSATIYELKEDKSYDVTEVVFEQKKCHYIIKTFVPGSQPGEFTLSPISSSPGLVSHLVRVVSTNYNQHAMVFFKKVHQNREFFWITLYGRTKELTSELKENFIRFSKSLGLPENHIVFPVPIDQCIDG
modifications: lipocalin mutein
B4: SEQ ID NO: 33: optimized CTGF-binding hNGAL lipocalin mutein (protein)
chain: QDSTSDLIPAPPLSKVPLQQNFQDNQFQGKWYVVGWAGNAKLREDKQPFKMSATIYELKEDKSYDVTEVVFEQKKCHYIIKTFVPGSQPGEFTEGNYKRRPRLWSDLVRVVSTNYNQHAMVFFKKVHQNREFFWITLYGRTKELTSELKENFIRFSKSLGLPENHIVFPVPIDQCIDG
modifications: lipocalin mutein
B5: SEQ ID NO: 34: optimized CTGF-binding hNGAL lipocalin mutein (protein)
chain: B3 chain with K41I, S95G, P96D, S98K, S100P, L103E, V104T, H106T, H127S
modifications: lipocalin mutein
B6: SEQ ID NO: 35: optimized CTGF-binding hNGAL lipocalin mutein (protein)
chain: B3 chain with F49L, L94A, S95G, P96D, S98K, S100P, L103Y, V104T, H106S, H127S
modifications: lipocalin mutein
B7: SEQ ID NO: 5: optimized CTGF-binding hNGAL lipocalin mutein (protein)
chain: QDSTSDLIPAPPLSKVPLQQNFQDNQFQGKWYVVGKAGNALREDKEPPKMWATIYELKEDKSYDVTHVHFLTKKCKYLIDTFVPGSQPGEFTIGAIKSGPGLTSPLVRVVSTNYNQHAMVFFKWVSQNREWFTITLYGRTKELTSELKENFIRFSKSLGLPENHIVFPVPIDQCIDG
modifications: lipocalin mutein
B8: SEQ ID NO: 6: optimized CTGF-binding hNGAL lipocalin mutein (protein)
chain: QDSTSDLIPAPPLSKVPLQQNFQDNQFQGKWYVVGRAGNNQLREDKSPPKMWATIYELKEDKSYDVTHVHFSTKKCRYIIDTFVPGSQPGEFTAGAIKSGPGLTSPLVRVVSTNYNQHAMVFFKWVTQNREWFTITLYGRTKELTSELKENFIRFSKSLGLPENHIVFPVPIDQCIDG
modifications: lipocalin mutein

Tests used:
[1] = Thermal stability assessment by nanoDSC; format: physicochemical; details: 1 mg/mL in PBS, scan 25-100° C. at 1° C./min; for TM: major transition
Experimental: To determine the melting temperatures (Tms) of the lipocalin muteins, which is a general indicator for folding stability, the CTGF specific muteins, at a protein concentration of 1 mg/mL in PBS (Gibco), were scanned (25-100° C.) at 1° C./min using a capillary nanoDSC instrument (CSC 6300, TA Instruments). […] Several unfolding events can contribute to the observed thermogram. In cases with multiple transitions, the one with the major unfolding energy best represents the overall protein fold and is reported. Muteins were produced as described in Example 3. SEQ ID NOs: 3, 7, 9, 25, and 29 were expressed using E. coli, the other muteins were expressed using CHO cells.
The resulting maximum melting temperatures as well as the onset temperature of melting for exemplary lipocalin muteins and fusion proteins are listed in Table 3 below.

[2] = target: T1, human CTGF (Homo sapiens, UniProt P29279); assay: SPR binding kinetics and affinity, human CTGF; details: 25° C., 1:1 binding model
T1 construct: purchased Creative Biomart
Experimental: (§1) Surface plasmon resonance (SPR) was used to measure binding kinetics and affinity of the representative lipocalin muteins disclosed herein.
(§2) The binding of exemplary lipocalin muteins to human (Creative Biomart), cynomolgus, rat (R&D Systems) and mouse CTGF (Abbexa) was determined by SPR using a Biacore instrument (Cytiva, formerly GE Healthcare). Some targets were fused to a human IgG1 Fc tag, and captured via the anti-human IgG antibody kit, others were directly immobilized.
(§3) For some measurements, human CTGF with a human IgG1 Fc Tag or rat or murine CTGF without a tag were directly immobilized to a CM5 Chip. The carboxyl groups on the chip were activated using 1-ethyl-3-(3-dimethylaminopropyl)-carbodiimide (EDC) and N-hydroxysuccinimide (NHS). Subsequently, the targets at a concentration of 3-5 μg/mL in 10 mM sodium acetate (pH) 4.5 were applied at a flow rate of 10 μL/min until an immobilization level of 300-1100 resonance units was achieved. Residual non-reacted NHS-esters were blocked by passing a solution of 1 M ethanolamine across the surface. The reference channel was activated/deactivated. For the capture setting, targets with an IgG Fc Tag at 0.25-2.5 μg/mL in HBS-EP+ buffer were captured by the anti-human IgG-Fc antibody at the chip surface for 180 s at a flow rate of 10 μL/min.
(§4) The binding assay was carried out with a contact time of 180 s, a dissociation time of 900-3600 s and a flow rate of 30 μL/min. All measurements were performed at 25° C. […] For the directly immobilized targets, the same regeneration conditions were used. Prior to the protein measurements, three startup cycles were performed for conditioning purposes. Data were evaluated with Biacore Evaluation software. Double referencing was used and the 1:1 binding model was used to fit the raw data.

[3] = target: T2, human CTGF (Homo sapiens, UniProt P29279, H83D); assay: SPR binding kinetics and affinity, human CTGF; details: 25° C., 1:1 binding model
T2 construct: purchased Creative Biomart
Experimental: as §1, §2, §3, §4

[4] = target: T3, Murine CTGF (Mus musculus, UniProt P29268); assay: SPR binding kinetics and affinity, murine CTGF; design: key to Murine CTGF kon / Murine CTGF koff / Murine CTGF KD: B binding without determination of kinetics constants; details: 25° C., 1:1 binding model
T3 construct: purchased Abbexa
T3 sequence (P29268 26-348): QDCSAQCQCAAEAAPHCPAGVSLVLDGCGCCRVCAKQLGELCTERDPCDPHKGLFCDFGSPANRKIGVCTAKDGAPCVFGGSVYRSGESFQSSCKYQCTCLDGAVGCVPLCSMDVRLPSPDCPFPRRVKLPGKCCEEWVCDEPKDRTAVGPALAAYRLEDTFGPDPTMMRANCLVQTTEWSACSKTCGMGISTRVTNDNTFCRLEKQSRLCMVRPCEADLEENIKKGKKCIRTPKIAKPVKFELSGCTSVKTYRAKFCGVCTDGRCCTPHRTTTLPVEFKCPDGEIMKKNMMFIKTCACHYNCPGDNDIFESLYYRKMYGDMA
Experimental: as §1, §2, §3, §4
(§5) The values determined for kon, koff and the resulting equilibrium dissociation constant (KD) for exemplary lipocalin muteins are summarized in Table 4.

[5] = target: T4, Rat CTGF (Rattus norvegicus, UniProt Q9R1E9); assay: SPR binding kinetics and affinity, rat CTGF; design: key to Rat CTGF kon / Rat CTGF koff / Rat CTGF KD: B binding without determination of kinetics constants; details: 25° C., 1:1 binding model
T4 construct: purchased R&D Systems
T4 sequence (Q9R1E9 25-347): T3 sequence (P29268 26-348) with H16R, A148V
Experimental: as §1, §2, §3, §4, §5

[6] = tested on: cynomolgus CTGF; assay: SPR binding kinetics and affinity, cynomolgus CTGF; details: 25° C., 1:1 binding model
Experimental: as §1, §2, §3, §4, §5

T1 sequence (P29279 with tags, fused parts or gaps H83D): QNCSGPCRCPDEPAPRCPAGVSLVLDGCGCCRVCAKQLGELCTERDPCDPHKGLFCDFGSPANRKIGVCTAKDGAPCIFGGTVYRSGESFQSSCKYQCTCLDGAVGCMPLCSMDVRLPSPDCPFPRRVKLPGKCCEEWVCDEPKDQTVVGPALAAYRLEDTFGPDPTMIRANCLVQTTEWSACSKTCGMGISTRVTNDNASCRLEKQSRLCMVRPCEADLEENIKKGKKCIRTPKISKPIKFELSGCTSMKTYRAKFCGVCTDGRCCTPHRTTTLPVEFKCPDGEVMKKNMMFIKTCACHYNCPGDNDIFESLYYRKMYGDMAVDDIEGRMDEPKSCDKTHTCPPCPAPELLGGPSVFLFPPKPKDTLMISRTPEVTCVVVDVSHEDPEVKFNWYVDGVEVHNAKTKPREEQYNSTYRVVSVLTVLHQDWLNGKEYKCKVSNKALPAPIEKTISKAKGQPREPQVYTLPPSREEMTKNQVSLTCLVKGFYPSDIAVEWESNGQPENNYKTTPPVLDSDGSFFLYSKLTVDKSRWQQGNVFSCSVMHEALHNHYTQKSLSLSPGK
T2 sequence (P29279 with tags, fused parts or gaps H83D): as above
Chain of cynomolgus CTGF (as listed by the source): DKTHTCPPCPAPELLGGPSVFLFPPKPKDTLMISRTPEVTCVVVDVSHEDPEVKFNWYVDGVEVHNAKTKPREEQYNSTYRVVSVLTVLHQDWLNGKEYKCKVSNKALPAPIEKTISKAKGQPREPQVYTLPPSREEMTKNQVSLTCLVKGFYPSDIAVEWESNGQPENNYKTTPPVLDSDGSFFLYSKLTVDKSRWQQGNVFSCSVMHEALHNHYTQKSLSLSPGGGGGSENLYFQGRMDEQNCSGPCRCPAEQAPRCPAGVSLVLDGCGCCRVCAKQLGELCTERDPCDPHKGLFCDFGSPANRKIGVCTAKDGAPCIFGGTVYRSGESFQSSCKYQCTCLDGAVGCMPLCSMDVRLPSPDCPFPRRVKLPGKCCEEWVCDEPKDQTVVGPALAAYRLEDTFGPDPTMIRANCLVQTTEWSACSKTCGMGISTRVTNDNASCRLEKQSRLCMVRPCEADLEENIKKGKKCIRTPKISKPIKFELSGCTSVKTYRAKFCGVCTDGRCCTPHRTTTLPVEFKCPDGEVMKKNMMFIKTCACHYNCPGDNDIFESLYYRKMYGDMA

| Molecule | ONSET MELTING [1] [°C] | TM [1] [°C] | human CTGF koff [2] [s⁻¹] | human CTGF kon [3] [M⁻¹ s⁻¹] | Murine CTGF KD [4] | Murine CTGF koff [4] | Murine CTGF kon [4] | Rat CTGF koff [5] | Rat CTGF kon [5] | cynomolgus CTGF koff [6] [s⁻¹] | cynomolgus CTGF kon [6] [M⁻¹ s⁻¹] | Rat CTGF KD [5] |
| --- | --- | --- | --- | --- | --- | --- | --- | --- | --- | --- | --- | --- |
| B1 | 50 | 66 | 2.23e-06 | 67700 | B | B | B | 4.08e-05 s⁻¹ | 88800 M⁻¹ s⁻¹ |  |  |  |
| B2 | 59 | 73 | 8.05e-06 | 142000 | B | B | B | 4.01e-05 s⁻¹ | 181000 M⁻¹ s⁻¹ |  |  |  |
| B3 | 62 | 79 | 6.39e-05 | 109000 |  | 0.000264 s⁻¹ | 133000 M⁻¹ s⁻¹ |  |  |  |  |  |
| B4 | 56 | 72 | 1.71e-05 | 172000 |  | 5.29e-05 s⁻¹ | 176000 M⁻¹ s⁻¹ | 6.3e-05 s⁻¹ | 279000 M⁻¹ s⁻¹ |  |  |  |
| B5 | 67 | 82 | 0.000169 | 150000 |  | 0.00286 s⁻¹ | 240000 M⁻¹ s⁻¹ |  |  | 0.000238 | 139000 |  |
| B6 | 63 | 78 | 5.94e-05 | 108000 |  | 0.000287 s⁻¹ | 128000 M⁻¹ s⁻¹ | 0.000273 s⁻¹ | 193000 M⁻¹ s⁻¹ |  |  |  |
| B7 | 52 | 66 | 6.65e-05 | 211000 | B | B | B | 0.000362 s⁻¹ | 294000 M⁻¹ s⁻¹ |  |  |  |
| B8 | 48 | 66 | 0.000149 | 290000 | B | B | B | B | B |  |  | B |
